IC50 and fold weaker binding than native NT data for three molecules are collected here from patent US20100256055A1 (ANGIOCHEM, published 2010).

Assay [1] concerns the target NT receptor NTSR1 (high affinity NTSR1 receptor) on HT29 cells (human) (UniProt P30989). The assay is described as follows: competition with [3H]-NT on HT29 cells expressing NTSR1.
Assay [2] concerns the target T1, NT receptor NTSR1 (high affinity NTSR1 receptor) on HT29 cells (human, UniProt P30989 1-418).
T1 construct: whole, on cells; also called neurotensin receptor type 1; NTR1
Described as above.

As a reminder, the IC50 is the point on the concentration scale where inhibition reaches its midpoint.

Square brackets hold non-standard residues; d marks the D form. pGlu = O=C1CC[C@@H](C(=O)O)N1

Sequence of NT receptor NTSR1 (high affinity NTSR1 receptor) on HT29 cells (human) (P30989 whole entry): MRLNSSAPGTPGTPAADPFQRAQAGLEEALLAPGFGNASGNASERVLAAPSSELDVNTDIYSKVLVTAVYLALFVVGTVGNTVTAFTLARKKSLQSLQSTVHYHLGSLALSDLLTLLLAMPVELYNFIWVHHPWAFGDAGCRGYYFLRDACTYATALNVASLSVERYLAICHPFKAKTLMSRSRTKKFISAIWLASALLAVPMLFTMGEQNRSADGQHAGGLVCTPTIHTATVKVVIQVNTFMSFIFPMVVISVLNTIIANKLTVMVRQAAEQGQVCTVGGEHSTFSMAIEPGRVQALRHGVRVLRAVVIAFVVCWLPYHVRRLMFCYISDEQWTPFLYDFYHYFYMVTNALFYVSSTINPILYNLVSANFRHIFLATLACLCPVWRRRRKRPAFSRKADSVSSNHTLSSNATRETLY
T1 sequence (P30989 whole entry): as above

For “Ac-Lys-[D-Tyr^11]NT(8-13) (Ac-KRRPD-YIL-OH) (peptide)”, in assay [1], the IC50 is 5390 nM and the fold weaker binding than native NT was over 1000 fold.

B1: Ac-LysNT(8-13) (peptide)
peptide: Ac-KRRPYIL-OH
notes: Structure printed only as drawing CHEM-US-00004; The chain is built from the name, and Mw 987.20 fits Ac-KRRPYIL
As for B1, the IC50 in assay [2] is 1 nM.

B2: pGlu-LysNT(8-13) (peptide)
peptide: [pGlu]KRRPYIL-OH
SMILES: CC[C@H](C)[C@H](NC(=O)[C@H](Cc1ccc(O)cc1)NC(=O)[C@@H]1CCCN1C(=O)[C@H](CCCNC(=N)N)NC(=O)[C@H](CCCNC(=N)N)NC(=O)[C@H](CCCCN)NC(=O)[C@@H]1CCC(=O)N1)C(=O)N[C@@H](CC(C)C)C(=O)O
notes: Structure printed only as drawing CHEM-US-00006; The chain is built from the name, and Mw 1056.26 fits pGlu-KRRPYIL; also called pE-Lys-NT(8-13); pGlu-NT(8-13)
In assay [2], B2 came in with an IC50 of 1.3 nM.
